Measured values: the supplement of paper PMC10724198
± gives the standard deviation of the averaged measurements.

Columns and labels:
Saccharomyces cerevisiae [1] = assay: protein stability index of tFT-peptide fusion (C-terminal peptide) (PSI (0-1 scale)); higher = more stable (slower turnover); settings: genetic background: wild type; temperature: 30 C
Saccharomyces cerevisiae [2] = assay: as above
Experimental: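 MPS profiling in S. cerevisiae of the tFT-X12 degron library: putative degron peptides plus stable controls, 12 aa, fused to the C-terminus of a sfGFP-mCherry timer. Cells are FACS-sorted into 8 mCherry/sfGFP bins and deep-sequenced. PSI runs from 0 (unstable) to 1 (stable). Backgrounds are wild type, das1Δ and doa10Δ at 30 °C, and wild type, das1Δ, cdc34-1 and cdc53-1 at 37 °C; 2-3 technical replicates each.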

[3] = genetic background: cdc34-1, temperature: 37 C
[4] = genetic background: cdc53-1, temperature: 37 C
[5] = genetic background: das1 deletion, temperature: 30 C
[6] = genetic background: das1 deletion, temperature: 37 C
[7] = genetic background: doa10 deletion, temperature: 30 C
[8] = genetic background: wild type, temperature: 30 C
[9] = genetic background: wild type, temperature: 37 C
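Note: PSI is a weighted mean of sequencing reads over stability bins, variants kept only with over 10 reads, mCherry proximal and sfGFP distal, peptide attached via GGGS linker.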

Sequence	protein stability index (Saccharomyces cerevisiae [1])	protein stability index (Saccharomyces cerevisiae [2]; [3])	protein stability index (Saccharomyces cerevisiae [2]; [4])	protein stability index (Saccharomyces cerevisiae [2]; [5])	protein stability index (Saccharomyces cerevisiae [2]; [6])	protein stability index (Saccharomyces cerevisiae [2]; [7])	protein stability index (Saccharomyces cerevisiae [2]; [8])	protein stability index (Saccharomyces cerevisiae [2]; [9])
RAVLRFVMVWVL	0.317 ± 0.0068	0.499 ± 0.042	0.611 ± 0.024	0.466 ± 0.02	0.5789 ± 0.003	0.253 ± 0.024	0.244 ± 0.051	0.434 ± 0.022
ALFISLAIWNWS	0.232 ± 0.012	0.0849 ± 0.024	0.154 ± 0.018	0.165 ± 0.027	0.318 ± 0.01	0.142 ± 0.011	0.139 ± 0.0085	0.2526 ± 0.00054
FFLLTCFLLPSV	0.441 ± 0.015	0.44 ± 0.03	0.512 ± 0.013	0.346 ± 0.036	0.526 ± 0.014	0.328 ± 0.013	0.341 ± 0.024	0.514 ± 0.014
RGPAYATCHLLC	0.232 ± 0.028	0.599 ± 0.041	0.7316 ± 0.0053	0.645 ± 0.012	0.75 ± 0.0094	0.119 ± 0.013	0.141 ± 0.022	0.257 ± 0.015
SVPIAFYLLFFQ	0.464 ± 0.021	0.557 ± 0.0081	0.605 ± 0.027	0.458 ± 0.021	0.648 ± 0.013	0.434 ± 0.013	0.456 ± 0.016	0.575 ± 0.016
FWHGRCPGLYLV	0.27 ± 0.0087	0.583 ± 0.11	0.639 ± 0.018	0.607 ± 0.012	0.7263 ± 0.0042	0.163 ± 0.009	0.169 ± 0.03	0.304 ± 0.005
CFFLSFNVFRLF	0.148 ± 0.05	0.465 ± 0.059	0.559 ± 0.011	0.498 ± 0.034	0.633 ± 0.022	0.107 ± 0.0097	0.114 ± 0.033	0.113 ± 0.0019
QCRLPRPPLSLP	0.436 ± 0.022	0.676 ± 0.017	0.7414 ± 0.0062	0.651 ± 0.022	0.7354 ± 0.0058	0.672 ± 0.032	0.692 ± 0.009	0.693 ± 0.0099
LPLSPPPLPSSR	0.432 ± 0.032	0.6697 ± 0.0028	0.72639 ± 0.00044	0.634 ± 0.019	0.704 ± 0.014	0.639 ± 0.022	0.663 ± 0.032	0.675 ± 0.018
RGFVVFCIPCFV	0.3392 ± 0.002	0.301 ± 0.042	0.326 ± 0.021	0.259 ± 0.042	0.428 ± 0.033	0.204 ± 0.0051	0.243 ± 0.03	0.401 ± 0.038
PSIALVRLDVIC	0.392 ± 0.017	0.383 ± 0.0059	0.471 ± 0.0073	0.32 ± 0.038	0.46 ± 0.004	0.297 ± 0.011	0.327 ± 0.031	0.443 ± 0.0051
GVVWPLGWVWVE	0.527 ± 0.05	0.699 ± 0.016	0.7315 ± 0.0022	0.614 ± 0.012	0.7383 ± 0.0066	0.368 ± 0.014	0.421 ± 0.025	0.615 ± 0.0074
SVLCLFSRLRSV	0.354 ± 0.069	0.625 ± 0.022	0.7308 ± 0.0022	0.638 ± 0.015	0.736 ± 0.0017	0.17 ± 0.0041	0.19 ± 0.032	0.383 ± 0.011
PRPETCHAVAVR	0.4806 ± 0.0021	0.568 ± 0.012	0.588 ± 0.037	0.377 ± 0.034	0.575 ± 0.015	0.363 ± 0.0093	0.4 ± 0.029	0.58 ± 0.011
FFMLWCRVLLRL	0.2187 ± 0.002	0.144 ± 0.026	0.102 ± 0.017	0.215 ± 0.014	0.278 ± 0.0028	0.18536 ± 0.00012	0.145 ± 0.031	0.167 ± 0.0071
GPGTWLFCFVRF	0.509 ± 0.027	0.504 ± 0.032	0.55 ± 0.0069	0.432 ± 0.029	0.602 ± 0.0065	0.475 ± 0.017	0.42 ± 0.022	0.612 ± 0.031
RIRLYWVLRRLG	0.183 ± 0.0066	0.595 ± 0.008	0.693 ± 0.013	0.571 ± 0.023	0.758 ± 0.0098	0.0772 ± 0.023	0.0992 ± 0.031	0.129 ± 0.0085
ESCFGMAIFCVT	0.466 ± 0.024	0.526 ± 0.012	0.571 ± 0.011	0.37 ± 0.03	0.5841 ± 0.0045	0.301 ± 0.012	0.334 ± 0.03	0.525 ± 0.01
FLVIILFFLYMR	0.209 ± 0.011	0.144 ± 0.043	0.0943 ± 0.015	0.176 ± 0.042	0.232 ± 0.023	0.398 ± 0.017	0.184 ± 0.041	0.185 ± 0.02
